Source: PMC7305210, “Mitochondria-adaptor TRAK1 promotes kinesin-1 driven transport in crowded environments” (Nature Communications, 2020)

Molecular target: microtubules polymerized from porcine tubulin (porcine, UniProt P02550 1-451; Q767L7 1-444, Alexa Fluor 647 NHS ester on 20% of the tubulin in fluorescently labeled microtubules | Alexa Fluor 647 NHS ester on 20% of the tubulin in fluorescently labeled microtubules)
Test: single-molecule TIRF microscopy, two-colour co-movement on immobilised microtubules; KIF5B construct and 175 nM TRAK1 construct pre-incubated 10 min on ice, flushed onto bare immobilised microtubules in motility buffer with 1 mM Mg-ATP; room temperature; for the complexes traces of the mCherry-TRAK1 channel analysed
Settings: both partners purified

B1: KIF5B-GFP-mCherry-TRAK1∆ complex (complex)
chain 1: MADLAECNIKVMCRFRPLNESEVNRGDKYIAKFQGEDTVVIASKPYAFDRVFQSSTSQEQVYNDCAKKIVKDVLEGYNGTIFAYGQTSSGKTHTMEGKLHDPEGMGIIPRIVQDIFNYIYSMDENLEFHIKVSYFEIYLDKIRDLLDVSKTNLSVHEDKNRVPYVKGCTERFVCSPDEVMDTIDEGKSNRHVAVTNMNEHSSRSHSIFLINVKQENTQTEQKLSGKLYLVDLAGSEKVSKTGAEGAVLDEAKNINKSLSALGNVISALAEGSTYVPYRDSKMTRILQDSLGGNCRTTIVICCSPSSYNESETKSTLLFGQRAKTIKNTVCVNVELTAEQWKKKYEKEKEKNKILRNTIQWLENELNRWRNGETVPIDEQFDKEKANLEAFTVDKDITLTNDKPATAIGVIGNFTDAERRKCEEEIAKLYKQLDDKDEEINQQSQLVEKLKTQMLDQEELLASTRRDQDNMQAELNRLQAENDASKEEVKEVLQALEELAVNYDQKSQEVEDKTKEYELLSDELNQKSATLASIDAELQKLKEMTNHQKKRAAEMMASLLKDLAEIGIAVGNNDVKQPEGTGMIDEEFTVARLYISKMKSEVKTMVKRCKQLESTQTESNKKMEENEKELAACQLRISQHEAKIKSLTEYLQNVEQKKRQLEESVDALSEELVQLRAQEKVHEMEKEHLNKVQTANEVKQAVEQQIQSHRETHQKQISSLRDEVEAKAKLITDLQDQNQKMMLEQERLRVEHEKLKATDQEKSRKLHELTVMQDRREQARQDLKGLEETVAKELQTLHNLRKLFVQDLATRVKKSAEIDSDDTGGSAAQKQKISFLENNLEQLTKVHKQLVRDNADLRCELPKLEKRLRATAERVKALESALKEAKENASRDRKRYQQEVDRIKEAVRSKNMARRGHSAQIAKPIRPGQHPAASPTHPSAIRGGGAFVQNSQPVAVRGGGGKQV
chain 2: MALVFQFGQPVRAQPLPGLCHGKLIRTNACDVCNSTDLPEVEIISLLEEQLPHYKLRADTIYGYDHDDWLHTPLISPDANIDLTTEQIEETLKYFLLCAERVGQMTKTYNDIDAVTRLLEEKERDLELAARIGQSLLKKNKTLTERNELLEEQVEHIREEVSQLRHELSMKDELLQFYTSAAEESEPESVCSTPLKRNESSSSVQNYFHLDSLQKKLKDLEEENVVLRSEASQLKTETITYEEKEQQLVNDCVKELRDANVQIASISEELAKKTEDAARQQEEITHLLSQIVDLQKKAKACAVENEELVQHLGAAKDAQRQLTAELRELEDKYAECMEMLHEAQEELKNLRNKTMPNTTSRRYHSLGLFPMDSLAAEIEGTMRKELQLEEAESPDITHQKRVFETVRNINQVVKQRSLTPSPMNIPGSNQSSAMNSLLSSCVSTPRSSFYGSDIGNVVLDNKTNSIILETEAADLGNDERSKKPGTPGTPGSHDLETALRRLSLRRENYLSERRFFEEEQERKLQELAEKGELRSGSLTPTESIMSLGTHSRFSEFTGFSGMSFSSRSYLPEKLQIVKPLEGSATLHHWQQLAQPHLGGILDPRPGVVTKGFRTLDVDLDEVYCLNDFEEDDTGD
notes: KIF5B, kinesin-1 heavy chain, human, amino acids 1-963; as m1; TRAK1, stop codon after amino acid 635; as m6; also called truncated KIF5B-GFP-mCherry-TRAK1∆ complex; source: the two purified proteins (m1 from SF9, m6 from HEK293T) pre-incubated 10 min on ice; not shown: GFP, C-terminal, kept; 6xHis, C-terminal, cleaved; mCherry, N-terminal, kept; TwinStrep-FLAG-Halo, N-terminal, cleaved
median interaction time with microtubules: 5.33 s

B2: KIF5B∆-GFP in complex with mCherry-TRAK1 (complex)
chain 1: MADLAECNIKVMCRFRPLNESEVNRGDKYIAKFQGEDTVVIASKPYAFDRVFQSSTSQEQVYNDCAKKIVKDVLEGYNGTIFAYGQTSSGKTHTMEGKLHDPEGMGIIPRIVQDIFNYIYSMDENLEFHIKVSYFEIYLDKIRDLLDVSKTNLSVHEDKNRVPYVKGCTERFVCSPDEVMDTIDEGKSNRHVAVTNMNEHSSRSHSIFLINVKQENTQTEQKLSGKLYLVDLAGSEKVSKTGAEGAVLDEAKNINKSLSALGNVISALAEGSTYVPYRDSKMTRILQDSLGGNCRTTIVICCSPSSYNESETKSTLLFGQRAKTIKNTVCVNVELTAEQWKKKYEKEKEKNKILRNTIQWLENELNRWRNGETVPIDEQFDKEKANLEAFTVDKDITLTNDKPATAIGVIGNFTDAERRKCEEEIAKLYKQLDDKDEEINQQSQLVEKLKTQMLDQEELLASTRRDQDNMQAELNRLQAENDASKEEVKEVLQALEELAVNYDQKSQEVEDKTKEYELLSDELNQKSATLASIDAELQKLKEMTNHQKKRAAEMMASLLKDLAEIGIAVGNNDVKQPEGTGMIDEEFTVARLYISKMKSEVKTMVKRCKQLESTQTESNKKMEENEKELAACQLRISQHEAKIKSLTEYLQNVEQKKRQLEESVDALSEELVQLRAQEKVHEMEKEHLNKVQTANEVKQAVEQQIQSHRETHQKQISSLRDEVEAKAKLITDLQDQNQKMMLEQERLRVEHEKLKATDQEKSRKLHELTVMQDRREQARQDLKGLEETVAKELQTLHNLRKLFVQDLATRVKKSAEIDSDDTGGSAAQKQKISFLENNLEQLTKVHKQLVRDNADLRCELPKLEKRLRATAERVKALESALKEAKENASRDRKRYQQEVDRIKEA
chain 2: MALVFQFGQPVRAQPLPGLCHGKLIRTNACDVCNSTDLPEVEIISLLEEQLPHYKLRADTIYGYDHDDWLHTPLISPDANIDLTTEQIEETLKYFLLCAERVGQMTKTYNDIDAVTRLLEEKERDLELAARIGQSLLKKNKTLTERNELLEEQVEHIREEVSQLRHELSMKDELLQFYTSAAEESEPESVCSTPLKRNESSSSVQNYFHLDSLQKKLKDLEEENVVLRSEASQLKTETITYEEKEQQLVNDCVKELRDANVQIASISEELAKKTEDAARQQEEITHLLSQIVDLQKKAKACAVENEELVQHLGAAKDAQRQLTAELRELEDKYAECMEMLHEAQEELKNLRNKTMPNTTSRRYHSLGLFPMDSLAAEIEGTMRKELQLEEAESPDITHQKRVFETVRNINQVVKQRSLTPSPMNIPGSNQSSAMNSLLSSCVSTPRSSFYGSDIGNVVLDNKTNSIILETEAADLGNDERSKKPGTPGTPGSHDLETALRRLSLRRENYLSERRFFEEEQERKLQELAEKGELRSGSLTPTESIMSLGTHSRFSEFTGFSGMSFSSRSYLPEKLQIVKPLEGSATLHHWQQLAQPHLGGILDPRPGVVTKGFRTLDVDLDEVYCLNDFEEDDTGDHISLPRLATSTPVQHPETSAHHPGKCMSQTNSTFTFTTCRILHPSDELTRVTPSLNSAPTPACGSTSHLKSTPVATPCTPRRLSLAESFTNTRESTTTMSTSLGLVWLLKERGISAAVYDPQSWDRAGRGSLLHSYTPKMAVIPSTPPNSPMQTPTSSPPSFEFKCTSPPYDNFLASKPASSILREVREKNVRSSESQTDVSVSNLNLVDKVRRFGVAKVVNSGRAHVPTLTEEQGPLLCGPPGPAPALVPRGLVPEGLPLRCPTVTSAIGGLQLNSGIRRNRSFPTMVGSSMQMKAPVTLTSGILMGAKLSKQTSLR
notes: KIF5B, kinesin-1 heavy chain, human, amino acids 1-905; as m2; TRAK1, cDNA KIAA1042; as m5; also called KIF5B∆-GFP-mCherry-TRAK1 complex; KIF5B∆-TRAK1 transport complex; source: the two purified proteins (m2 from SF9, m5 from HEK293T) pre-incubated 10 min on ice; not shown: GFP, C-terminal, kept; 6xHis, C-terminal, cleaved; mCherry, N-terminal, kept; TwinStrep-FLAG-Halo, N-terminal, cleaved; …
median interaction time with microtubules: 12.2 s

B3: KIF5B∆-GFP in complex with mCherry-TRAK1∆ (complex)
chain 1: B2 chain 1
chain 2: B1 chain 2
notes: KIF5B, kinesin-1 heavy chain, human, amino acids 1-905; as m2; TRAK1, stop codon after amino acid 635; as m6; source: the two purified proteins (m2 from SF9, m6 from HEK293T) pre-incubated 10 min on ice; not shown: GFP, C-terminal, kept; 6xHis, C-terminal, cleaved; mCherry, N-terminal, kept; TwinStrep-FLAG-Halo, N-terminal, cleaved
median interaction time with microtubules: 2.22 s

B4: KIF5B-GFP-mCherry-TRAK1 complex (complex)
chain 1: B1 chain 1
chain 2: B2 chain 2
notes: KIF5B, kinesin-1 heavy chain, human, amino acids 1-963; as m1; TRAK1, cDNA KIAA1042; as m5; Only traces of mCherry-TRAK1 were analysed, so that the moving particles are complexes; also called KIF5B-TRAK1 transport complex; source: the two purified proteins (m1 from SF9, m5 from HEK293T) pre-incubated 10 min on ice; not shown: GFP, C-terminal, kept; 6xHis, C-terminal, cleaved; mCherry, N-terminal, …
median interaction time with microtubules: 19.3 s
